From PMC3248442 (2011)

Molecular target: T1, integrin αVβ5 (Homo sapiens, UniProt P06756)
T1 chain 1: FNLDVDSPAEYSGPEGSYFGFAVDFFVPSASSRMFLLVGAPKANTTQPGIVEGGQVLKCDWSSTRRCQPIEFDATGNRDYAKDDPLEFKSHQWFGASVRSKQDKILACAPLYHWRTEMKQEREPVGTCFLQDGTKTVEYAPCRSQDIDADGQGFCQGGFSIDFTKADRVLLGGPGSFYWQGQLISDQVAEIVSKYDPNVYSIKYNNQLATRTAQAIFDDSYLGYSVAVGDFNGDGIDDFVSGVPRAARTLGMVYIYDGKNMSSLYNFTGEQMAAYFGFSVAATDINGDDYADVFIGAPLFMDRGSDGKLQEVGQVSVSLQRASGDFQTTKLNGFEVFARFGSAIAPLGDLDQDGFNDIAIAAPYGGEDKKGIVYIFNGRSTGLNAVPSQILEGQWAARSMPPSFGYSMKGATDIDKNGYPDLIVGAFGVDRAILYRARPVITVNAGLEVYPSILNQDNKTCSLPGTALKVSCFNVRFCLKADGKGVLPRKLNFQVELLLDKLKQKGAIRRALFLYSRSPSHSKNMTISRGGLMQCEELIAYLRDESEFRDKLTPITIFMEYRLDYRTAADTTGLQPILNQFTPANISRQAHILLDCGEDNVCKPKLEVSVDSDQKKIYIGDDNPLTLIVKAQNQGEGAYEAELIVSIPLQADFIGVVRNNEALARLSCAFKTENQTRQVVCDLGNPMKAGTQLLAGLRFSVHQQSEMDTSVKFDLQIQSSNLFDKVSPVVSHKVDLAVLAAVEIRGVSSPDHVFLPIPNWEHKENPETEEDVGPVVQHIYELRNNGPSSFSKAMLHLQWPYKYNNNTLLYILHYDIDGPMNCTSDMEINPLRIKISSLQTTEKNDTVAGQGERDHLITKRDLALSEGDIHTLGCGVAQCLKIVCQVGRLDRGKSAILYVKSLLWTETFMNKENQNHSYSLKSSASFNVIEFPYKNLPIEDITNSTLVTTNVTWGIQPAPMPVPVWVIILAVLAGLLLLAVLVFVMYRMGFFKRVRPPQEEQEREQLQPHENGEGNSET
T1 chain 2: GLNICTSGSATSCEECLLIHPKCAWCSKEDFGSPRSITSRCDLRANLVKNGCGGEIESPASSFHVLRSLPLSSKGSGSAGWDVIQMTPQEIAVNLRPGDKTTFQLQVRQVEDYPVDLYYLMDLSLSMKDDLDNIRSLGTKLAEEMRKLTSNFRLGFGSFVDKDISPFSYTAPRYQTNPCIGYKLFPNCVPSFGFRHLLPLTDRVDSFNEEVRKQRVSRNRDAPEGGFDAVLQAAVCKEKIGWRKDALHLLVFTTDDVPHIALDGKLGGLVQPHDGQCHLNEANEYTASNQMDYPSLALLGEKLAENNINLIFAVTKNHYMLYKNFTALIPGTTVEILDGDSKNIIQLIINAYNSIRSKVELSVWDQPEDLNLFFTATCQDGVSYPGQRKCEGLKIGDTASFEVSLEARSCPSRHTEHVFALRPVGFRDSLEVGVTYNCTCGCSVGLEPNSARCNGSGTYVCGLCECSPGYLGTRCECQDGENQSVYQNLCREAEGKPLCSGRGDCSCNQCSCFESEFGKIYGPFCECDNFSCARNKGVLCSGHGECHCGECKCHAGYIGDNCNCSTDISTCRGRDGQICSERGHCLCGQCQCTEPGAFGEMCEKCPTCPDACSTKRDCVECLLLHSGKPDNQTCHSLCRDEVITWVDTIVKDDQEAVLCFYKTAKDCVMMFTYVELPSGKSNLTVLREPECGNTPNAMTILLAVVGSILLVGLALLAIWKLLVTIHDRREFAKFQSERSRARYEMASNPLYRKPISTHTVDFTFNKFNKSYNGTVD
Test: solid-phase binding assay (fluorescent immunoassay)

B1: PilY1 532-1163 (protein)
chain: AGDLTRYSLTTQDKATVQTKLWSAQSILDAMPNGGAGRKIMMAGSGTSGLKEFTWGSLSADQQRQLNRDPDRNDVADTKGQDRVAFLRGDRSKENSDNFRTRNSILGDIINSSPATVGKAQYLTYLAQPIEPSGNYSTFAEAQKTRAPRVYVGANDGMLHGFDTDGNETFAFIPSAVFEKLHKLTARGYQGGAHQFYVDGSPVVADAFFGGAWHTVLIGSLRAGGKGLFALDVTDPANIKLLWEIGVDQEPDLGYSFPKPTVARLHNGKWAVVTGNGYSSLNDKAALLIIDLETGAITRKLEVTGRTGVPNGLSSPRLADNNSDGVADYAYAGDLQGNLWRFDLIAGKVNQDDPFSRANDGPAVASSFRVSFGGQPLYSAVDSAGAAQAITAAPSLVRHPTRKGYIVIFGTGKYFENADARADTSRAQTLYGIWDQQTKGEAAGSTPRLTRGNLQQQTLDLQADSTFASTARTIRIASQNPVNWLNNDGSTKQSGWYLDFMVNGTLKGEMLIEDMIAIGQVVLLQTITPNDDPCADGASNWTYGLDPYTGGRTSFTVFDLARQGVVDSKSDYSYNKQNVAVSGTEQKGLGGLTLSTNEQGNPEVCSSGECLTVNPGPNTRGRQNWRPIEGKN
Question: How did the Kd turn out when B1 was run?
Answer: 164 nM
